Where a chain is given by its changes, count along the chain named.
Tests used:
Test in all cases: SPR; Lge1-CT immobilised on a CM5 chip, Bre1-LR flown over; Biacore 8K, 25°C, 20 mM HEPES (pH 7.5), 200 mM sodium chloride, 0.02% Tween 20
Details in all cases: both partners purified
Bre1-LR K534E = biological target: T1, Bre1-LR K534E (budding yeast, UniProt Q07457 227-700, K534E)
T1 construct: source: E. coli BL21 Rosetta (DE3), purified (Ni-NTA, heparin, gel filtration)
T1 sequence (looked up): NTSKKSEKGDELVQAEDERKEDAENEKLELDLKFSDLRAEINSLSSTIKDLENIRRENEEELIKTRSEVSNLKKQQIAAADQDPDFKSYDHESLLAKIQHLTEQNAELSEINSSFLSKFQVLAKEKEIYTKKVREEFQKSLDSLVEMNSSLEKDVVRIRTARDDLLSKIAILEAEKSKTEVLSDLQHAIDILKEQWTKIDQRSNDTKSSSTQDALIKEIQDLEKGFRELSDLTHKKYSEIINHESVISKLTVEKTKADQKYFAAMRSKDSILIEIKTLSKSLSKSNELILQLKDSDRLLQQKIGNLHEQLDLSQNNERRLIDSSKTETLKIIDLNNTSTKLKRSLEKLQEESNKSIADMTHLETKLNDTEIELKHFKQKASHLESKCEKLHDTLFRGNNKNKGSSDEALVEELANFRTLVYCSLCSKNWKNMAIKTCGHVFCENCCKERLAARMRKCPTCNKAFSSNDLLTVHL

Bre1-LR K379A = biological target: T2, Bre1-LR K379A (budding yeast, UniProt Q07457 227-700, K379A)
T2 construct: source: E. coli BL21 Rosetta (DE3), purified (Ni-NTA, heparin, gel filtration)
T2 sequence (looked up): T1 sequence (looked up) with K153A, E308K

Bre1-LR V382N = biological target: T3, Bre1-LR V382N (budding yeast, UniProt Q07457 227-700, V382N)
T3 construct: source: E. coli BL21 Rosetta (DE3), purified (Ni-NTA, heparin, gel filtration)
T3 sequence (looked up): T1 sequence (looked up) with V156N, E308K

Bre1-LR K379E = biological target: T4, Bre1-LR K379E (budding yeast, UniProt Q07457 227-700, K379E)
T4 construct: source: E. coli BL21 Rosetta (DE3), purified (Ni-NTA, heparin, gel filtration)
T4 sequence (looked up): T1 sequence (looked up) with K153E, E308K

B1: Lge1-CT (Lge1 residues 261–332), intein-chitin binding domain (CBD) tag construct (domain or fragment, budding yeast, UniProt Q02796 261-332, looked up)
chain: KNVKKTNNTESECEKAREVFKESDSIDSALEELNLKINSNELELRLLNNQCDKHALNIQLTQEKLDSLLLMQ
notes: Lge1, budding yeast, residues 261-332; residues 268–331 resolved in the electron density; the intein-CBD tag is named on the protein in the pull-down; also called intein-CBD-fused Lge1-CT; intein-CBD-tagged Lge1-CT; source: E. coli BL21 Rosetta (DE3): cleared cell extract on chitin resin (pull-down); purified (chitin, heparin, gel filtration) for ITC and SPR; co-purified with Bre1-LR for the …
A Kd (Bre1-LR K534E) of 19.4 nM, a Kd (Bre1-LR K379A) of 34 nM and a Kd (Bre1-LR V382N) of 63 nM were found for B1 in this work. For the same binder, the Kd (Bre1-LR K379E) was 41.3 nM.

Reference: paper PMC12802937 (Nucleic Acids Research, 2026)
